Residue numbers refer to the chain shown, from its start. Each block holds one binder with its values, some of them ahead of it.
Columns and labels:
[1] = target: T1, human CD4 on cells (SKW3 cells; human PBMCs) (human, UniProt P01730 26-458); test: FACS confirmation, supernatant on human PBMCs, anti-mouse Fc 647, CD4+ gate
T1 construct: whole, on cells; SKW3 CD4 knockout cells served as the negative cell line; also called hCD4

[2] = target: T1, human CD4 on cells (SKW3 cells; human …); test: FACS confirmation, supernatant on SKW3 WT cells, anti-mouse Fc 647; background gMFI 3300
[3] = target: T1, human CD4 on cells (SKW3 cells; human …); test: FACS confirmation, supernatant on SKW3 WT cells, anti-human kappa FITC; background gMFI 2500
[4] = target: T1, human CD4 on cells (SKW3 cells; human …); test: FACS confirmation, supernatant on human PBMCs, anti-mouse Fc 647, CD4+ percent of viable cells
[5] = target: T1, human CD4 on cells (SKW3 cells; human …); test: FACS primary screen, non-clonal hybridoma supernatant, SKW3 vs SKW3 CD4 knockout cells, anti-mouse Fc A647
[6] = target: T1, human CD4 on cells (SKW3 cells; human …); test: FACS primary screen, non-clonal hybridoma supernatant, SKW3 vs SKW3 CD4 knockout cells, anti-human kappa FITC
huCD4-HIS = target: T2, huCD4-HIS (human, UniProt P01730 26-390, limits assumed); test: ELISA binning, competitor Ibalizumab; 100 ng/mL huCD4-HIS, anti-HIS HRP detection; background 45, max binding 3000000
T2 construct: the ELISA binning is not described in the text of this stretch

[7] = target: T1, human CD4 on cells (SKW3 cells; human …); test: FACS binning on SKW3 cells pre-incubated with supernatant; competitor OKT4-A488, its signal read; background 2163, max binding 8200
[8] = target: T1, human CD4 on cells (SKW3 cells; human …); test: FACS binning on SKW3 cells pre-incubated with supernatant; competitor RPA-T4-PE-Dazzle 594, its signal read; background 783, max binding 15000
[9] = target: T1, human CD4 on cells (SKW3 cells; human …); test: FACS binning on SKW3 cells pre-incubated with supernatant; competitor OKT4a read with anti-human A647 secondary; background 5000, max binding 35000

PBMCs, anti-mFc 647 CD4+ gate - RL1 Binding [1]: 335000 | SKW3 WT anti-mFc 647, gMFI [2]: 25000 gMFI | SKW3 WT anti-hu Kappa FITC, gMFI [3]: 5620 gMFI | SKW3 WT vs KO anti-mFc-647 [5]: 6.6 fold | SKW3 WT vs KO anti-hKappa-FITC [6]: 2.8 fold | Ibalizumab ELISA binning signal (huCD4-HIS): 1.41e+06 | SKW3 FACS Binning OKT4 A488 [7]: 10000 | SKW3 FACS Binning RPA-T4-PE-Dazzle 594 [8]: 10900 | SKW3 FACS Binning OKT4a anti-hu A647 Secondary [9]: 8240
B2: 75110_12K21A (antibody, V domains shown)
VH: QVQLQQWGAGLLKPSETLSLTCAVSGGSFSGYYWSWIRQPPGKGLEWIGEINHSGSTNCNPSLKSRVTISVDTSNNQFSLKLSSVTAADTAVYYCARVLNYFDYWGQGTLVTVSS
VL: DIQMTQSPSSVSASVGDRVTITCRASPDIANWLAWYQQKPGKAPELLIYAASSLQSGVPSRFSGSGSGTDFTLTISSLQPEDFATYFCQQANSFPLTFGGGTKVESK
notes: Tested as non-clonal AlivaMab Mouse Kappa hybridoma supernatant: human variable domains and human kappa, mouse Fc
PBMCs, anti-mFc 647 CD4+ Percent Bound of Viable [4]: 30%

PBMCs, anti-mFc 647 CD4+ gate - RL1 Binding [1]: 215000 | SKW3 WT anti-mFc 647, gMFI [2]: 18200 gMFI | SKW3 WT anti-hu Kappa FITC, gMFI [3]: 5910 gMFI | SKW3 WT vs KO anti-mFc-647 [5]: 6.4 fold | SKW3 WT vs KO anti-hKappa-FITC [6]: 2.8 fold | Ibalizumab ELISA binning signal (huCD4-HIS): 1.16e+06 | SKW3 FACS Binning OKT4 A488 [7]: 9370 | SKW3 FACS Binning RPA-T4-PE-Dazzle 594 [8]: 19000 | SKW3 FACS Binning OKT4a anti-hu A647 Secondary [9]: 6220
B4: 75110_13P22A (antibody, IgG1, V domains shown)
VH: B2 VH with V24A, S25Y, P40S, H53Q, S56N, C59Y, V71A, N75K, Y101W, T109I
VL: DIQMTQSPSSVSASVGDRVTITCRASQGISDWLAWYQQKSGKAPDLLIFAASSLQSGVPSRFSGSGSGTDFTLTISSLQPEDFATYYCQQANSFPYTFGQGTKLEIK
notes: as for B2
PBMCs, anti-mFc 647 CD4+ Percent Bound of Viable [4]: 27%

PBMCs, anti-mFc 647 CD4+ gate - RL1 Binding [1]: 274000 | SKW3 WT anti-mFc 647, gMFI [2]: 30900 gMFI | SKW3 WT anti-hu Kappa FITC, gMFI [3]: 7580 gMFI | SKW3 WT vs KO anti-mFc-647 [5]: 5.8 fold | SKW3 WT vs KO anti-hKappa-FITC [6]: 2.4 fold | Ibalizumab ELISA binning signal (huCD4-HIS): 678000 | SKW3 FACS Binning OKT4 A488 [7]: 9420 | SKW3 FACS Binning RPA-T4-PE-Dazzle 594 [8]: 11900 | SKW3 FACS Binning OKT4a anti-hu A647 Secondary [9]: 6870
B5: 75110_13P21A (antibody, IgG1, V domains shown)
VH: B2 VH
VL: B2 VL
notes: as for B2
PBMCs, anti-mFc 647 CD4+ Percent Bound of Viable [4]: 31%

Further lines, the binder ahead of its results:

B1: 75110_06D16A (antibody, V domains shown)
VH: B2 VH with S25Y, C59Y, D72V, N75K, Y101W, Y104P
VL: B4 VL with G28D, S30A, S40P, D45K, F49Y, L54F, Y87F
notes: Tested as non-clonal AlivaMab Mouse Kappa hybridoma supernatant: human variable domains and human kappa, mouse Fc (detected with anti-mouse Fc)
PBMCs, anti-mFc 647 CD4+ gate - RL1 Binding [1]: 216000 | SKW3 WT anti-mFc 647, gMFI [2]: 41300 gMFI | SKW3 WT anti-hu Kappa FITC, gMFI [3]: 8670 gMFI | PBMCs, anti-mFc 647 CD4+ Percent Bound of Viable [4]: 29% | SKW3 WT vs KO anti-mFc-647 [5]: 4 fold | SKW3 WT vs KO anti-hKappa-FITC [6]: 2.5 fold | Ibalizumab ELISA binning signal (huCD4-HIS): 1.27e+06 | SKW3 FACS Binning OKT4 A488 [7]: 9980 | SKW3 FACS Binning RPA-T4-PE-Dazzle 594 [8]: 21300 | SKW3 FACS Binning OKT4a anti-hu A647 Secondary [9]: 5800

B3: 75110_07B16A (antibody, IgG1, V domains shown)
VH: B2 VH with S25Y, P40S, H53Q, C59Y, N75K, N76D, L99I, Y101W, Y104S, T109S
VL: B4 VL with D31S, S40P, D45K, F49Y, A50D, L54F, P80T, E81D
notes: as for B2
PBMCs, anti-mFc 647 CD4+ gate - RL1 Binding [1]: 274000 | SKW3 WT anti-mFc 647, gMFI [2]: 30800 gMFI | SKW3 WT anti-hu Kappa FITC, gMFI [3]: 7220 gMFI | PBMCs, anti-mFc 647 CD4+ Percent Bound of Viable [4]: 29% | SKW3 WT vs KO anti-mFc-647 [5]: 11.4 fold | SKW3 WT vs KO anti-hKappa-FITC [6]: 3 fold | Ibalizumab ELISA binning signal (huCD4-HIS): 1.31e+06 | SKW3 FACS Binning OKT4 A488 [7]: 9280 | SKW3 FACS Binning RPA-T4-PE-Dazzle 594 [8]: 20600 | SKW3 FACS Binning OKT4a anti-hu A647 Secondary [9]: 5320

B6: 75110_12C19A (antibody, IgG1, V domains shown)
VH: EVQLVESGGGLVQPGGSLRLSCAASGFTFSSYWMSWVRQAPGKGLEWVANIKEDGSDKYYVDSVKGRFTISRDNAKNSLYLQMNSLRAEDTAVHYCVREGGQWLALDYWGQGTLVTVSS
VL: B4 VL with A13G, D31S, S40P, D45K, F49Y, A50G, A84V, Y96W, L104V
notes: as for B2
PBMCs, anti-mFc 647 CD4+ gate - RL1 Binding [1]: 341000 | SKW3 WT anti-mFc 647, gMFI [2]: 29300 gMFI | SKW3 WT anti-hu Kappa FITC, gMFI [3]: 6850 gMFI | PBMCs, anti-mFc 647 CD4+ Percent Bound of Viable [4]: 31% | SKW3 WT vs KO anti-mFc-647 [5]: 7.2 fold | SKW3 WT vs KO anti-hKappa-FITC [6]: 2.3 fold | Ibalizumab ELISA binning signal (huCD4-HIS): 1.51e+06 | SKW3 FACS Binning OKT4 A488 [7]: 9580 | SKW3 FACS Binning RPA-T4-PE-Dazzle 594 [8]: 11900 | SKW3 FACS Binning OKT4a anti-hu A647 Secondary [9]: 7140

— patent US20220112288A1 (published 2022)
